The text below walks through data of publication PMC10085679, “Filament assembly underpins the double-stranded DNA specificity of AIM2-like receptors”.

T1: AIM2FL (Homo sapiens, UniProt O14862 1-343)
T1 sequence: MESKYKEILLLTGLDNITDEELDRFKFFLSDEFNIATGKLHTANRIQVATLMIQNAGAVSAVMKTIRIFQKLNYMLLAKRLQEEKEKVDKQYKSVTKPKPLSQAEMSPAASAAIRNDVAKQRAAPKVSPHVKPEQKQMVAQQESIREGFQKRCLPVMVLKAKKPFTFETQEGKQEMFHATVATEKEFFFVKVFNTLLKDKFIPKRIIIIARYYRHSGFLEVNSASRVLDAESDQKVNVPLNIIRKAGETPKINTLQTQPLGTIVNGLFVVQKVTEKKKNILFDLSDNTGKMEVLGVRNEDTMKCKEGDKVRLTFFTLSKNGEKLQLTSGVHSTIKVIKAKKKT

T2: AIM2HIN (Homo sapiens, UniProt O14862 144-343)
T2 sequence: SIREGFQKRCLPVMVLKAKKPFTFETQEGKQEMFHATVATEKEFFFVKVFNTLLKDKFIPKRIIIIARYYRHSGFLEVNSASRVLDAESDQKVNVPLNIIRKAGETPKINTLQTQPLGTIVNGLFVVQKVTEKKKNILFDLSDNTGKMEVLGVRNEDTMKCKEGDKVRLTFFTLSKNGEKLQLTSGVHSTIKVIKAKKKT

B1: 60-base ssDNA_T (ssDNA)
DNA: TTTCTTTCTTTCTTTCTTTCTTTCTTTCTTTCTTTCTTTCTTTCTTTCTTTCTTTCTTTC
B2: 60-base ssRNA_U (ssRNA)
RNA: UUUCUUUCUUUCUUUCUUUCUUUCUUUCUUUCUUUCUUUCUUUCUUUCUUUCUUUCUUUC
B3: 60-bp dsRNA (dsRNA)
RNA 1: UAAGACACGAUGCGAUAAAAUCUGUUUGUAAAAUUUAUUAAGGGUACAAAUUGCCCUAGC
RNA 2: GCUAGGGCAAUUUGUACCCUUAAUAAAUUUUACAAACAGAUUUUAUCGCAUCGUGUCUUA
B4: 60-base ssRNA_A (ssRNA)
RNA: AAAGAAAGAAAGAAAGAAAGAAAGAAAGAAAGAAAGAAAGAAAGAAAGAAAGAAAGAAAG
B5: 60-base ssDNA_A (ssDNA)
DNA: B4 RNA
B6: 24-bp dsRNA (dsRNA)
RNA 1: UAAGACACGAUGCGAUAAAAUCUG
RNA 2: CAGAUUUUAUCGCAUCGUGUCUUA
B7: 24-bp DNA:RNA hybrid (DNA:RNA)
DNA: TAAGACACGATGCGATAAAATCTG
RNA: CAGAUUUUAUCGCAUCGUGUCUUA
B8: 24-bp dsDNA (dsDNA)
DNA 1: TAAGACACGATGCGATAAAATCTG
DNA 2: CAGATTTTATCGCATCGTGTCTTA

As a reminder, the IC50 is the point on the concentration scale where inhibition reaches its midpoint.

The target of one data set is T3, IFI16HinAB (Homo sapiens, UniProt Q16666-2 159-729). Nature of the data set: competition fluorescence anisotropy; unlabelled competitor against 6 nM 24-bp FAM-dsDNA, 1000 nM protein; 160 mM KCl (60 mM KCl for IFI16HinAB); buffer, pH and temperature not given in the available text. The conditions noted are these: protein: recombinant. In general terms: Polarisation of emitted light reports the rotation of a fluorescent probe.
T3 sequence (Q16666 other isoform, or with tags, fused parts or gaps): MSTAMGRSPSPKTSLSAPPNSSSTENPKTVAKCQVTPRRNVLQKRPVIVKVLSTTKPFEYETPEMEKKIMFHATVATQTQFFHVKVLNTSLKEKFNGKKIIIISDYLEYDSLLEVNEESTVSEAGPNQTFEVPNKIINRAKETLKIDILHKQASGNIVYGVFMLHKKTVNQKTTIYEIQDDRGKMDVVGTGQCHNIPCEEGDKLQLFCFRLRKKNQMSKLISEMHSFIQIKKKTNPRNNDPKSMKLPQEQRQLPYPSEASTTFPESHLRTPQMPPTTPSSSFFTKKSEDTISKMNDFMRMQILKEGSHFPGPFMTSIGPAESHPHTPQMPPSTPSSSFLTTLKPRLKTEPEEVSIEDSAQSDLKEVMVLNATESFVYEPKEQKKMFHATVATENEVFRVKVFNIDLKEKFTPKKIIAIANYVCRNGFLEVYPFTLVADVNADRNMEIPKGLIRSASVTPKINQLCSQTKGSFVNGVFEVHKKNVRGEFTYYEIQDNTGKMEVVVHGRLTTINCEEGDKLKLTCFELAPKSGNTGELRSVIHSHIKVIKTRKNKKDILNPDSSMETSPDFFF
B1: the IC50 was 828 ± 155 nM.
The same measure, in the same setting: for B2 the value was 733 ± 48.5 nM; for B3, 1130 ± 61.7 nM.

The next data set addresses T1, AIM2FL. Nature of the data set: competition fluorescence anisotropy; unlabelled competitor against 6 nM 60-bp FAM-dsDNA, 60 nM protein; 160 mM KCl (60 mM KCl for IFI16HinAB); buffer, pH and temperature not given in the available text. The conditions noted are these: protein: recombinant.
For the molecule B4, the IC50 was determined as 1020 ± 130 nM.

The target of the next data set is T4, IFI16FL (Homo sapiens, UniProt Q16666-2 1-729). As to the kind of experiment: competition fluorescence anisotropy; unlabelled competitor against 6 nM 60-bp FAM-dsDNA, 100 nM protein; 160 mM KCl (60 mM KCl for IFI16HinAB); buffer, pH and temperature not given in the available text. Particulars: protein: recombinant; tags: C-terminal His6.
T4 sequence (Q16666 other isoform, or with tags, fused parts or gaps): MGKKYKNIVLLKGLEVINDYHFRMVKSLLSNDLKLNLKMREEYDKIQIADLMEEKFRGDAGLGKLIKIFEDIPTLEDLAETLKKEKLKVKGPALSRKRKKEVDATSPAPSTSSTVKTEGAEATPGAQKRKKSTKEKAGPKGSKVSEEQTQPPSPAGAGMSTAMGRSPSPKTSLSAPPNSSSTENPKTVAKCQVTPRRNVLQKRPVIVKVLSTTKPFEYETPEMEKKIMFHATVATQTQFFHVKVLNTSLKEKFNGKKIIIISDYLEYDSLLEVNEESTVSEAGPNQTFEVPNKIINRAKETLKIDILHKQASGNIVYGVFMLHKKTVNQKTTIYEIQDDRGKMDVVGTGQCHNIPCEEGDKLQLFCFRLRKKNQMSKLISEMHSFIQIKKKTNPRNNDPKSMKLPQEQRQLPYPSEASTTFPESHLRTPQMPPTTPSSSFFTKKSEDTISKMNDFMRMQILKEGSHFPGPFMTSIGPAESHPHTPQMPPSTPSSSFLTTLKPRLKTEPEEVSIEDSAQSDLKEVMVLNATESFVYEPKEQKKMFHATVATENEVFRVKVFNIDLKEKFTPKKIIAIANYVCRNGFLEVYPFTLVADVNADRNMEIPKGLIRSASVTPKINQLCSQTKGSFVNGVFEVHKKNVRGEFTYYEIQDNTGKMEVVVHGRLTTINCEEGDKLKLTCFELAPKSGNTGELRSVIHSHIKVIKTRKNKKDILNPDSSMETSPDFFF
B4: the IC50 amounted to 166 ± 18 nM.
On the same count and under the same terms, with B2 the figure was 1120 ± 75.5 nM; with B3, 1070 ± 132 nM.

In the next data set the target is T2, AIM2HIN. As to the kind of experiment: competition fluorescence anisotropy; unlabelled competitor against 6 nM 24-bp FAM-dsDNA, 625 nM protein; 160 mM KCl (60 mM KCl for IFI16HinAB); buffer, pH and temperature not given in the available text. The conditions noted are these: protein: recombinant.
Take B1: the IC50 was found to be 113 ± 7.3 nM.
B5: the IC50 was 134 ± 16.6 nM.
As to B4, the half-maximal inhibitory concentration (IC50) came to 132.8 ± 0.4 nM.
As for B2, the 50% inhibitory concentration (IC50) came to 219 ± 33.5 nM.
Take B3: the concentration for half-maximal inhibition (IC50) turned out to be 92.9 ± 2.8 nM.

Another data set deals with T2, AIM2HIN. Nature of the data set: competition fluorescence anisotropy; unlabelled competitor against 6 nM 60-bp FAM-dsDNA, 400 nM protein; 160 mM KCl (60 mM KCl for IFI16HinAB); buffer, pH and temperature not given in the available text. The conditions noted are these: protein: recombinant.
As to B1, the 50% inhibitory concentration (IC50) amounted to 1000 ± 259 nM.
The same measure, in the same setting: for B4 the value was 1230 ± 483 nM.
In the case of B2, the concentration for half-maximal inhibition (IC50) came out at 741 ± 70.3 nM.
With B3, the IC50 came to 281 ± 53.1 nM.

A further data set concerns the target T3, IFI16HinAB. Described as above. Particulars: protein: recombinant.
B1: the 50% inhibitory concentration (IC50) worked out at 1390 ± 137 nM.
Same read-out and setting: for B5 the value was 3010 nM; for B4, 1970 ± 90 nM; for B3, 1430 ± 366 nM.

In the next data set the target is T3, IFI16HinAB. As to the kind of experiment: EMSA; apparent KD >=1 uM; low salt; 160 mM KCl; 60 mM KCl for IFI16HinAB; FAM probe 3-6 nM (FA) or 20 nM (EMSA); binding buffer pH and temperature not in the material. Particulars: protein: recombinant; label: FAM. (In general: A gel shift assay detects complexes by their altered migration in electrophoresis.)
Consider B6, for which the Kd is above 1000 nM.
Turning to AAAGAAAGAAAGAAAGAAAGAAAG (ssDNA) [24-base ssDNA_A], the Kd is above 1000 nM.
The same measure, in the same setting: for TTTCTTTCTTTCTTTCTTTCTTTC (ssDNA) [24-base ssDNA_T] the value was above 1000 nM.

The target in the next data set is T1, AIM2FL. As to the kind of experiment: competition fluorescence anisotropy; unlabelled competitor against 6 nM 24-bp FAM-dsDNA, 100 nM protein; 160 mM KCl (60 mM KCl for IFI16HinAB); buffer, pH and temperature not given in the available text. The conditions noted are these: protein: recombinant.
As to B1, the IC50 was 165 ± 7.3 nM.
On to B5, for which the IC50 was 58.9 ± 6.7 nM.
Still for that read-out and setting: with B4 the figure was 46.1 ± 2.7 nM.
Same read-out and setting: for B2 the value was 273 ± 171 nM.
Take B3: the concentration for half-maximal inhibition (IC50) came out at 69.7 ± 6.7 nM.

The next data set deals with T4, IFI16FL. As to the kind of experiment: fluorescence anisotropy; 160 mM KCl (60 mM KCl for IFI16HinAB); buffer, pH and temperature not given in the available text. Particulars: protein: recombinant; tags: C-terminal His6.
Consider B1, for which the Kd turned out to be 22 ± 4 nM.
With B2, the Kd amounted to 78 ± 11 nM.
For B3, the Kd stood at 85 ± 7 nM.

In the next data set the target is T2, AIM2HIN. The data set is described as above. Particulars: protein: recombinant.
In the case of B1, the Kd was found to be 400 ± 100 nM.
On the same count and under the same terms, for B5 the value was 2700 ± 100 nM; for B4, 1400 ± 200 nM; for B2, 300 ± 100 nM.
For the molecule B3, the Kd was found to be 1100 ± 200 nM.

Still in this data set, the particulars now being: protein: recombinant; label: FAM.
Regarding UUUCUUUCUUUCUUUCUUUCUUUC (ssRNA) [24-base ssRNA_U], the Kd came out at 210 ± 60 nM.
On the same count and under the same terms, for B6 the value was 1200 ± 200 nM; for B7, 900 ± 100 nM; for B8, 900 ± 200 nM.
Still for that read-out and setting: for TTTCTTTCTTTCTTTCTTTCTTTC (ssDNA) [24-base ssDNA_T] the value was 1200 ± 200 nM.

For the next data set, the target named is T1, AIM2FL. The data set is described as above. The conditions noted are these: protein: recombinant.
B1: the Kd is 320 ± 80 nM.
As for B5, the Kd was determined as 150 ± 30 nM.
Same read-out and setting: with B4 the figure was 400 ± 100 nM; with B2, 80 ± 20 nM; with B3, 50 ± 10 nM.

Still in this data set, the particulars now being: protein: recombinant; label: FAM.
With B8, the Kd was 80 ± 20 nM.

In the next data set the target is T3, IFI16HinAB. Described as above. The conditions noted are these: protein: recombinant.
Take B1: the Kd stood at 70 ± 20 nM.
Still for that read-out and setting: for B2 the value was 30 ± 10 nM; for B3, 30 ± 10 nM.

Another data set has as its target T3, IFI16HinAB. Nature of the data set: EMSA; apparent KD <=250 nM; low salt; 160 mM KCl; 60 mM KCl for IFI16HinAB; FAM probe 3-6 nM (FA) or 20 nM (EMSA); binding buffer pH and temperature not in the material. Particulars: protein: recombinant; label: FAM.
Turning to B7, the Kd is below 250 nM.
Same read-out and setting: for B8 the value was below 250 nM.

The target of the next data set is T4, IFI16FL. Nature of the data set: fluorescence anisotropy; 160 mM KCl; 60 mM KCl for IFI16HinAB; FAM probe 3-6 nM (FA) or 20 nM (EMSA); binding buffer pH and temperature not in the material. The conditions noted are these: protein: recombinant; tags: C-terminal His6.
In the case of B1, the Kd was 22 ± 4 nM.
In the case of B5, the Kd amounted to 150 ± 20 nM.
As to B2, the Kd was 78 ± 11 nM.
For the molecule B3, the Kd came out at 85 ± 7 nM.

The next data set addresses T2, AIM2HIN. Described as above. The conditions noted are these: protein: recombinant.
For B5, the Kd was 2700 ± 100 nM.

Still in this data set, the particulars now being: protein: recombinant; label: FAM.
Consider AAAGAAAGAAAGAAAGAAAGAAAG (ssDNA) [24-base ssDNA_A], for which the Kd is 5700 ± 700 nM.

The next data set addresses T1, AIM2FL. The data set is described as above. Particulars: protein: recombinant.
For the molecule B1, the Kd was 320 ± 80 nM.
For B5, the Kd turned out to be 150 ± 30 nM.
On the same count and under the same terms, with B4 the figure was 400 ± 100 nM; with B2, 80 ± 20 nM.
The same measure, in the same setting: for B3 the value was 50 ± 10 nM.

For a further data set, the target named is T3, IFI16HinAB. Nature of the data set: fluorescence anisotropy; 60 mM KCl; 160 mM KCl; 60 mM KCl for IFI16HinAB; FAM probe 3-6 nM (FA) or 20 nM (EMSA); binding buffer pH and temperature not in the material. Particulars: protein: recombinant.
Consider B5, for which the Kd is 500 ± 200 nM.

For a further data set, the target named is T4, IFI16FL. As to the kind of experiment: competition fluorescence anisotropy; unlabelled competitor against 6 nM 24-bp FAM-dsDNA, 500 nM protein; 160 mM KCl (60 mM KCl for IFI16HinAB); buffer, pH and temperature not given in the available text. Particulars: protein: recombinant; tags: C-terminal His6.
Regarding B1, the IC50 turned out to be 644 ± 133 nM.
Regarding B2, the 50% inhibitory concentration (IC50) came to 305 ± 48.5 nM.
The same measure, in the same setting: for B3 the value was 490 ± 40.3 nM.

For the next data set, the target named is T3, IFI16HinAB. Nature of the data set: EMSA; low salt; 160 mM KCl; 60 mM KCl for IFI16HinAB; FAM probe 3-6 nM (FA) or 20 nM (EMSA); binding buffer pH and temperature not in the material. The conditions noted are these: protein: recombinant; label: FAM.
In the case of UUUCUUUCUUUCUUUCUUUCUUUC (ssRNA) [24-base ssRNA_U], the Kd was around 500 nM.
Still for that read-out and setting: with AAAGAAAGAAAGAAAGAAAGAAAG (ssRNA) [24-base ssRNA_A] the figure was around 500 nM.
